Test results published in patent US20110142849A1 (IRM, published 2011).

T1: cynomolgus monkey Pcsk9 with C-terminal his6 tag (cynomolgus monkey)
T1 chain: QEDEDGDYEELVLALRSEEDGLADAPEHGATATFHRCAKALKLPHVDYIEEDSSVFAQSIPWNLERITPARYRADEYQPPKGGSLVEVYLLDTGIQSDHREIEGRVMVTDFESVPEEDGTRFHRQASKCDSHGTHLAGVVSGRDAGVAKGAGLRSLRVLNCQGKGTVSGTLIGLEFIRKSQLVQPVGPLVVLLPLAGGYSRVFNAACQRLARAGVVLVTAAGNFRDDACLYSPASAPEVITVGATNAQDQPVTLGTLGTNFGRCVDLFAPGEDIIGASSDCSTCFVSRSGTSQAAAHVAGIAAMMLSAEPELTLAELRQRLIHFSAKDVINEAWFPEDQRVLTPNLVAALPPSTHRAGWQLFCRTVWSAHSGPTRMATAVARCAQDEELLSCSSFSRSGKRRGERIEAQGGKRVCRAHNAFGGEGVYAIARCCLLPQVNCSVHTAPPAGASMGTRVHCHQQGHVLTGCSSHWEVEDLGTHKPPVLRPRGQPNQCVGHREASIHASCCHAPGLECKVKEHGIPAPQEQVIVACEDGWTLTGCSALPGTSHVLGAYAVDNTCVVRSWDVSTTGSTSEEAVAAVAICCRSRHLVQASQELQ


How the values were obtained:
[1] = target: T2, mouse Pcsk9 with C-terminal his6 tag (mouse, UniProt Q80W65 35-694, limits assumed); assay: ELISA
T2 construct: also called murine PCSK9

[2] = target: T3, human LDL-R protein (human, UniProt P01130 22-788, limits assumed); assay: ELISA
T3 construct: Labelled with europium in the TR-FRET assay; also called hLDL-R; hLDL-R-Eu (europium-labelled)

[3] = target: T2, mouse Pcsk9 with C-terminal his6 tag; assay: not told in the legend
[4] = target: T1, cynomolgus monkey Pcsk9 with C-terminal …; assay: ELISA on cyno Pcsk9his, antibody 0.03 to 30 ng/ml, Abs 650nm

T2 sequence (Q80W65 other isoform, or with tags, fused parts or gaps limits assumed): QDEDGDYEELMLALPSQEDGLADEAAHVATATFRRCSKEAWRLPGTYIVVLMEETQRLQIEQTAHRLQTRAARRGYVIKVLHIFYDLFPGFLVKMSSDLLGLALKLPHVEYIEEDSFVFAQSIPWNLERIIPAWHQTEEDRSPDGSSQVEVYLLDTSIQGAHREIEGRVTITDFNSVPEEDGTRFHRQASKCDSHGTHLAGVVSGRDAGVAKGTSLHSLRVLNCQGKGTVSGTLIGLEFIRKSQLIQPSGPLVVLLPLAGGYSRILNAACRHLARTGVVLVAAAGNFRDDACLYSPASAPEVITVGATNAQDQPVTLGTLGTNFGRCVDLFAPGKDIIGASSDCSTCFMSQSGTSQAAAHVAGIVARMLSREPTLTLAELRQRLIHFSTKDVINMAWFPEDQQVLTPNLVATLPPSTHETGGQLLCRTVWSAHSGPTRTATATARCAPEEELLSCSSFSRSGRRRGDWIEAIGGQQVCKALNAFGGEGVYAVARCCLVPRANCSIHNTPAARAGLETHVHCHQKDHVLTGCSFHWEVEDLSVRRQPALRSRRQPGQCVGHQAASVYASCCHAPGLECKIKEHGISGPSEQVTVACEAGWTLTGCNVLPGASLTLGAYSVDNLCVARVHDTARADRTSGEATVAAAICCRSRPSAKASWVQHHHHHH
T3 sequence (P01130 22-788 limits assumed): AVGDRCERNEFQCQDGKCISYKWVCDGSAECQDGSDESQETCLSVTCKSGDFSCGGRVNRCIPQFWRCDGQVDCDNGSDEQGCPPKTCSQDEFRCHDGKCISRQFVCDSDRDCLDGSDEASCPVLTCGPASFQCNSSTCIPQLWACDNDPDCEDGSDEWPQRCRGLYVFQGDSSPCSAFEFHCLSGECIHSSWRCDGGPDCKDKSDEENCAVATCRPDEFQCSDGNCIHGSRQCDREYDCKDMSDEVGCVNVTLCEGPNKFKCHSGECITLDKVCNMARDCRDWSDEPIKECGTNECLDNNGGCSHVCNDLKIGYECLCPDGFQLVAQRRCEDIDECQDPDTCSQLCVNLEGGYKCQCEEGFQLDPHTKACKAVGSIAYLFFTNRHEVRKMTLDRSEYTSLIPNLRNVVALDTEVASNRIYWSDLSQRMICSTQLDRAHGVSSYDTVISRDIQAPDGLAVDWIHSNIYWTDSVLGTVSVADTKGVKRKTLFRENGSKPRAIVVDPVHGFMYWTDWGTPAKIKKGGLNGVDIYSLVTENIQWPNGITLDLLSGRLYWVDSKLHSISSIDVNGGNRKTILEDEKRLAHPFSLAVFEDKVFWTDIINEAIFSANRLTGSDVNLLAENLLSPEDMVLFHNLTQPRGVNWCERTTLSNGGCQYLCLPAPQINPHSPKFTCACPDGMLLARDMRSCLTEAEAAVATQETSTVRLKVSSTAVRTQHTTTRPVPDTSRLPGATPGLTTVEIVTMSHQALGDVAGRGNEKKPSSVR

| Binder | binding result [1] | binding result [2] | binding result [3] | EC50 (read off the curve) [4] [ng/mL] |
| --- | --- | --- | --- | --- |
| NVP-LFU720 (antibody, V domains shown, Murine anti-human Pcsk9 IgG1-kappa monoclonal antibody from a hybridoma; also called 5P20; NVP-LFU720-AX-1) VH: EVQLQQSGAELMKPGASVKLSCTASGFNIKDMYMSWVRQRPEQGLEWIGRIDPANGHTNYDPKFQAKATITTDTSSKTAYLHLSSLTSEDTAVYYCARSYYYYAMDYWGQGTSVTVSS VL: QIVLTQSPAIMSASPGEKVTMTCSASSSVSYMHWYQQKPGSSPRLWIYLTFNLASGVPARFSGSGSGTSYSLSISSMEAEDAATYYCLQWSSDPPTFGSGTKLEIK | no binding | no binding | – | – |
| NVP-LGT211 (antibody, human IgG1, V domains shown, Silent human IgG1 kappa; also called pSR74 (Vh) + pJG10 (Vk); pSR074 + pJG10) VH: QVQLVQSGAEVKKPGASVKVSCKASGYTFSTMYMSWVRQAPGQGLEWMGRIDPANEHTNYAQKFQGRVTMTRDTSISTAYMELSRLTSDDTAVYYCARSYYYYAMDYWGQGTLVTVSS VL: QIVLTQSPATLSVSPGERATLSCRASQSVSYMHWYQQKPGQAPRLLIYGVFRRATGIPDRFSGSGSGTDFTLTIGRLEPEDFAVYYCLQWSSDPPTFGQGTKLEIKR | – | – | no binding | ~2 |
